Measurements as given in patent US20100285015A1.

Columns and labels:
[1] = molecular target: glycophorin A associated protein (GPA) on mouse red blood cells (mouse); experiment: 125I-labeled fusion on mouse RBCs, 10% hematocrit, 1 h at 37° C, gamma counting
[2] = molecular target: glycophorin A associated protein (GPA) on mouse red blood cells (mouse); experiment: 125I-labeled fusion on mouse RBCs, 1% hematocrit, saturation binding (FIG. 4C)
[3] = molecular target: glycophorin A associated protein (GPA) on mouse red blood cells (mouse); experiment: 125I-labeled fusion injected i.v. in mice; RBC vs plasma radioactivity in blood (in vivo)
[4] = molecular target: glycophorin A associated protein (GPA) on mouse red blood cells (mouse); experiment: preloaded mouse RBCs injected in mice; RBC vs plasma radioactivity (in vivo)
[5] = molecular target: human red blood cells (human); experiment: 125I-labeled fusion on human RBCs, 10% hematocrit, 1 h at 37° C, gamma counting
[6] = molecular target: glycophorin A associated protein (GPA) on mouse red blood cells (mouse); experiment: 125I-labeled fusion at 40 µg/ml on mouse RBCs at ~50% hematocrit in PBS/BSA or heparinated plasma, 37° C, time course

- molecules/mRBC (molecules/mRBC) [1]: 20000
- Bmax (molecules/RBC) [2]: 80000
- Kd [2]: 77.9 nM
- percent associated with RBC [3]: 90%
- percent of fusion in the bloodstream associated with RBCs (one hour) [4]: 90 % ID
- percent of fusion in the bloodstream associated with RBCs (three hours) [4]: 75 % ID
- molecules/hRBC (molecules/hRBC) [5]: 120
- 50% saturation time [6]: 30 min
B1: Ter119scFv-mRNK fusion protein (protein)
chain: RSPWPGVPTSQVKLQESGGGLVQPGGSLKLSCVASGFTFRDHWMNWVRQAPGKTMEWIGDIRPDGSDTNYAPSVRNRFTISRDNARSILYLQMSNMRSDYTATYYCVRDSPTRAGLMDAWGQGASVTVLTGGGGSGGGGSGGGGSDIQMIQSPSVLSASVGDRVTLNCKASQNINKYLNWYQQKLGEAPKVLIYNTNNLQTGIPSRFSGSGSGTDFTLTISSLQPEDFATYFCFQHYTWPTFGGGTKLELKRASSSSGSSSSGAAAPKGKSEDCYVGKGVTYRGTHSLTTSQASCLPWNSIVLMGKSYTAWRTNSQALGLGRHNYCRNPDGDARPWCHVMKDRKLTWEYCDMSPCSTCGLRQYKRPQFRIKGGLYTDITSHPWQAPIFVAAAASPGERFLCGGVLISSCWVLSAAHCFLERFPPNHLKVVLGRTYRVVPGEEEQTFEIEKYIVHEEFDDDTYDNDIALLQLRSQSKQCAQESSSVGTACLPDPNLQLPDWTECELSGYGKHEASSPFFSDRLKEAHVRLYPSSRCTSQHLFNKTVTNNMLCAGDTRSGGNQDLHDACQGDSGGPLVCMINKQMTLTGIISWGLGCGQKDVPGVYTKVTNYLDWIHDNMKQ
modifications: 125I radiolabel in the binding assays
